± gives the uncertainty stated by the source.
Assay: self-splicing fitness, log relative to wild type (ln ratio); higher = more splicing; Tetrahymena group I intron in knt gene, E. coli kanamycin selection, DiMSum; sequences stand for … in CUCUCU…GGAGGGAAAAGUUAUCAGGCAUGCACCUGGUAGCUAGUCUUUAAACCAAUAGAUUGCAUCGGUUUAAAAGGCAAGACCGUCAAAUUGCGGGAAAGGGGUCAACAGCCGUUCAGUACCAAGUCUCAGGGGAAACUUUGAGAUGGCCUUGCAAAGGGUAUGGUAAUAAGCUGACGGACAUGGUCCUAACCACGCAGCCAAGUCCUAAGUCAACAGAUCUUCUGUUGAUAUGGAUGCAGUUCACAGACUAAAUGUCGGUCGGGGAAGAUGUAUUCUUCUCAUAAGAUAUAGUCGGACCUCUCCUUAAUGGGAGCUAGCGGAUGAAGUGAUGCAACACUGGAGCCGCUGGGAACUAAUUUGUAUGCGAAAGUAUAUUGAUUAGUUUUGGAGUACUCGUGGUCG
How it was run: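 A randomised library covering all eight P1ex-region intron nucleotides was built with the intron in the knt kanamycin-resistance gene on pET-22b(+) and held in E. coli BL21(DE3). Cells were grown overnight at 37°C or 30°C on LB agar, with or without 25 μg/mL kanamycin, plus 100 μg/mL carbenicillin, 50 μM IPTG and 0.2% rhamnose, and pooled colonies were amplicon-sequenced on an Illumina HiSeq 2500. DiMSum fitness is the error-weighted combination of wild-type-normalised replicate fold changes, kanamycin versus none.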

Row | Sequence | self-splicing fitness (ln) (30 °C) | self-splicing fitness (ln) (37 °C)
1 | GGAGAGCAAUAUUACGGCGU | -1.58 ± 0.2 | -1.17 ± 0.26
2 | GGAGAGCAAUAUUACGGCUC | -1.76 ± 0.2 | -2.82 ± 0.34
3 | GGAGAGCAAUAUUACGGGCC | -2.35 ± 0.33 | 
4 | GGAGAGCAAUAUUACGGUAU |  | -2.2 ± 0.34
5 | GGAGAGCAAUAUUACGGUUA | -3.19 ± 0.38 | 
6 | GGAGAGCAAUAUUACGUAGA | -4.01 ± 0.2 | -2.05 ± 0.15
7 | GGAGAGCAAUAUUACGUAUC | -2.61 ± 0.34 | -0.193 ± 0.23
8 | GGAGAGCAAUAUUACGUAUU | -4.02 ± 0.31 | -1.22 ± 0.16
9 | GGAGAGCAAUAUUACGUGUU | -4.51 ± 0.37 | -1.64 ± 0.31
10 | GGAGAGCAAUAUUACGUUCA | -1.39 ± 0.17 | -0.277 ± 0.21
11 | GGAGAGCAAUAUUACGUUGA |  | -1.97 ± 0.42
12 | GGAUAGCAAUAUUACGACGU | -0.152 ± 0.28 | -0.257 ± 0.24
13 | GGAUAGCAAUAUUACGAGAU | -3.46 ± 0.32 | 0.361 ± 0.15
14 | GGAUAGCAAUAUUACGAGUC | -2.17 ± 0.26 | -1.06 ± 0.22
15 | GGAUAGCAAUAUUACGAUGU | -0.882 ± 0.084 | -0.0369 ± 0.11
16 | GGAUAGCAAUAUUACGCAUC |  | -1.63 ± 0.38
17 | GGAUAGCAAUAUUACGCAUU | -3.51 ± 0.32 | -1.65 ± 0.22
18 | GGAUAGCAAUAUUACGCGGU | -2.47 ± 0.33 | -2.6 ± 0.38
19 | GGAUAGCAAUAUUACGCUUA | -1.88 ± 0.18 | -0.532 ± 0.15
20 | GGAUAGCAAUAUUACGGACG | -0.899 ± 0.13 | -0.693 ± 0.17
21 | GGAUAGCAAUAUUACGGAGG | -3.06 ± 0.2 | -2.77 ± 0.3
22 | GGAUAGCAAUAUUACGGGCC | -2.56 ± 0.35 | -1.65 ± 0.23

Row | Sequence | self-splicing fitness (ln) (30 °C) | self-splicing fitness (ln) (37 °C)
23 | GGAUAGCAAUAUUACGGGUG | -2.79 ± 0.33 | -0.239 ± 0.17
24 | GGAUAGCAAUAUUACGGUUG | -3.53 ± 0.26 | -0.953 ± 0.18
25 | GGAUAGCAAUAUUACGUCAG | -2.87 ± 0.12 | -2.12 ± 0.23
26 | GGAUAGCAAUAUUACGUCGG | -2.62 ± 0.23 | -1.86 ± 0.27
27 | GGAUAGCAAUAUUACGUCUU | -0.966 ± 0.096 | 0.126 ± 0.11
28 | GGAUAGCAAUAUUACGUUCG | -1.55 ± 0.12 | -1.64 ± 0.14
29 | GGCAAGCAAUAUUACGAACU | -1.18 ± 0.16 | 0.413 ± 0.14
30 | GGCAAGCAAUAUUACGACGA | -1.37 ± 0.099 | -0.167 ± 0.11
31 | GGCAAGCAAUAUUACGAUAU | -1.29 ± 0.073 | -0.406 ± 0.096
32 | GGCAAGCAAUAUUACGAUUG | -3.03 ± 0.19 | -1.64 ± 0.16
33 | GGCAAGCAAUAUUACGCCAU | -2.4 ± 0.39 | -1.39 ± 0.29
34 | GGCAAGCAAUAUUACGCCCU | -2.53 ± 0.26 | -0.495 ± 0.19
35 | GGCAAGCAAUAUUACGGCCU | -2.74 ± 0.18 | 0.111 ± 0.23
36 | GGCAAGCAAUAUUACGGGCU | -2.53 ± 0.2 | -2.48 ± 0.2
37 | GGCAAGCAAUAUUACGGGGC | -2.62 ± 0.42 | -1.5 ± 0.32
38 | GGCAAGCAAUAUUACGGUUA | -0.0834 ± 0.075 | 0.577 ± 0.074
39 | GGCAAGCAAUAUUACGUAUU | -0.415 ± 0.06 | -0.183 ± 0.074
40 | GGCAAGCAAUAUUACGUCAG | -4.5 ± 0.34 | -2.4 ± 0.26
41 | GGCAAGCAAUAUUACGUCCA | -1.83 ± 0.22 | -0.175 ± 0.18
42 | GGCAAGCAAUAUUACGUCUU | -0.676 ± 0.066 | -0.385 ± 0.071
43 | GGCCAGCAAUAUUACGACUA | -0.921 ± 0.1 | -0.322 ± 0.1

— the supplement of paper PMC7877785
